Reference: patent US20220175781A1, “CD40L COMPOSITIONS AND METHODS FOR TUNABLE REGULATION” (Obsidian Therapeutics, Inc., priority 2019, published 2022)

Legend:
Jurkat cells = experiment: Linker length, ER regulated CD40L, % CD40L positive Jurkat cells; format: cell-based
Procedure: Jurkat cells were lentivirally transduced and 24 hours after transduction were treated with DMSO or 1 μM Bazedoxifene for another 24 hours and analyzed by flow cytometry for surface expression of CD40L. […] In Table 33, SR indicates stabilization ratio.

HEK293T cells = experiment: Linker length, ER regulated CD40L surface expression, transfected HEK293T cells; format: cell-based, human; settings: 1 μM Bazedoxifene 24 hours
Procedure: To explore the effect of linker length in the DD mediated regulation of CD40L, constructs with varying linker lengths were generated. OT-001966, OT-001965, OT-001967, OT-001666 constructs were generated and are presented here in decreasing linker length order. HEK293T cells were transiently transfected with these constructs and treated with 1 μM Bazedoxifene for 24 hours. Median fluorescence intensity, an indicator of surface expression of CD40L, was analyzed by flow cytometry.

[1] = system: T cells (CD4 and CD8 positive); experiment: Bazedoxifene dose response, CD40L MFI in CD4 and CD8 positive T cells (day 4, freeze/thaw, restimulation); format: cell-based
Procedure: Dose response with Bazedoxifene in T cells were conducted for OT-001966, OT-001967, OT-001666. Expression of CD40L was measured at (a) day 4 after transduction, (b) after freezing and thawing the cells or (c) after freezing and thawing the cells followed by restimulation with CD3/CD28 beads. The CD40L MFI (median fluorescence intensity) within CD4 and CD8 positive subpopulations is shown in Table 34 and Table 35 respectively.

T cells (CD4+ and CD8+) = experiment: Regulation of CD40L in T cells by different drug responsive domains; format: cell-based

B1: OT-001966: ER regulated CD40L construct, longest linker (protein)
chain: MSLALSLTADQMVSALLDAEPPILYSEYDPTRPFSEASMMGLLTNLADRELVHMINWAKRVPGFVDLTLHDQVHLLECAWMEILMIGLVWRSMEHPGKLLFAPNLLLDRDQGKCVEGGVEIFDMLLATSSRFRMMNLQGEEFVCLKSIILLNSGVYTFLSSTLKSLEEKDHIHRVLDKITDTLIHLMAKAGLTLQQQHQRLAQLLLILSHIRHMSNKRMEHLYSMKCKNVVPLSDLLLEMLDAHRLGGSGGGSGGGSGMIETYNQTSPRSAATGLPISMKIFMYLLTVFLITQMIGSALFAVYLHRRLDKIEDERNLHEDFVFMKTIQRCNTGERSLSLLNCEEIKSQFEGFVKDIMLNKEETKKENSFEMQKGDQNPQIAAHVISEASSKTTSVLQWAEKGYYTMSNNLVTLENGKQLTVKRQGLYYIYAQVTFCSNREASSQAPFIASLCLKSPGRFERILLRAANTHSSAKPCGQQSIHLGGVFELQPGASVFVNVTDPSQVSHGTGFTSFGLLKL
Percent of Jurkat cells expressing CD40L (Jurkat cells; 1 μM Bazedoxifene): 46% | SR (Jurkat cells; 1 μM Bazedoxifene versus DMSO, % CD40L positive Jurkat cells): 15.3 | Percent of Jurkat cells expressing CD40L (Jurkat cells; DMSO): 3% | percentage of cells with high CD40L surface expression, ranking of constructs (Jurkat cells; Jurkat cells, 1 μM Bazedoxifene 24 hours): highest percentage of cells with high CD40L surface expression | percentage of cells with high CD40L surface expression, ranking of constructs (HEK293T cells): highest percentage of cells with high CD40L surface expression | CD40L expression (MFI) ([1]; CD4+ cells, Day 4, Bazedoxifene 0.01 nM): 415 | CD40L expression (MFI) ([1]; CD4+ cells, Day 4, Bazedoxifene 0.1 nM): 499 | CD40L expression (MFI) ([1]; CD4+ cells, Day 4, Bazedoxifene 1 nM): 545 | CD40L expression (MFI) ([1]; CD4+ cells, Day 4, Bazedoxifene 10 nM): 616 | CD40L expression (MFI) ([1]; CD4+ cells, Day 4, Bazedoxifene 100 nM): 1028 | CD40L expression (MFI) ([1]; CD4+ cells, Day 4, Bazedoxifene 1000 nM): 1551 | CD40L expression (MFI) ([1]; CD4+ cells, Day 4, Bazedoxifene 10000 nM): 1095 | CD40L expression (MFI) ([1]; CD4+ cells, Post Thaw, Bazedoxifene 0.01 nM): 183 | CD40L expression (MFI) ([1]; CD4+ cells, Post Thaw, Bazedoxifene 0.1 nM): 185 | CD40L expression (MFI) ([1]; CD4+ cells, Post Thaw, Bazedoxifene 1 nM): 193 | CD40L expression (MFI) ([1]; CD4+ cells, Post Thaw, Bazedoxifene 10 nM): 213 | CD40L expression (MFI) ([1]; CD4+ cells, Post Thaw, Bazedoxifene 100 nM): 258 | CD40L expression (MFI) ([1]; CD4+ cells, Post Thaw, Bazedoxifene 1000 nM): 292 | CD40L expression (MFI) ([1]; CD4+ cells, Post Thaw, Bazedoxifene 10000 nM): 577 | CD40L expression (MFI) ([1]; CD4+ cells, Restim, Bazedoxifene 0.01 nM): 340 | CD40L expression (MFI) ([1]; CD4+ cells, Restim, Bazedoxifene 0.1 nM): 340 | CD40L expression (MFI) ([1]; CD4+ cells, Restim, Bazedoxifene 1 nM): 364 | CD40L expression (MFI) ([1]; CD4+ cells, Restim, Bazedoxifene 10 nM): 472 | CD40L expression (MFI) ([1]; CD4+ cells, Restim, Bazedoxifene 100 nM): 561 | CD40L expression (MFI) ([1]; CD4+ cells, Restim, Bazedoxifene 1000 nM): 741 | CD40L expression (MFI) ([1]; CD4+ cells, Restim, Bazedoxifene 10000 nM): 447 | CD40L expression (MFI) ([1]; CD8+ cells, Day 4, Bazedoxifene 0.01 nM): 168 | CD40L expression (MFI) ([1]; CD8+ cells, Day 4, Bazedoxifene 0.1 nM): 176 | CD40L expression (MFI) ([1]; CD8+ cells, Day 4, Bazedoxifene 1 nM): 190 | CD40L expression (MFI) ([1]; CD8+ cells, Day 4, Bazedoxifene 10 nM): 212 | CD40L expression (MFI) ([1]; CD8+ cells, Day 4, Bazedoxifene 100 nM): 442 | CD40L expression (MFI) ([1]; CD8+ cells, Day 4, Bazedoxifene 1000 nM): 669 | CD40L expression (MFI) ([1]; CD8+ cells, Day 4, Bazedoxifene 10000 nM): 438 | CD40L expression (MFI) ([1]; CD8+ cells, Post Thaw, Bazedoxifene 0.01 nM): 113 | CD40L expression (MFI) ([1]; CD8+ cells, Post Thaw, Bazedoxifene 0.1 nM): 117 | CD40L expression (MFI) ([1]; CD8+ cells, Post Thaw, Bazedoxifene 1 nM): 121 | CD40L expression (MFI) ([1]; CD8+ cells, Post Thaw, Bazedoxifene 10 nM): 148 | CD40L expression (MFI) ([1]; CD8+ cells, Post Thaw, Bazedoxifene 100 nM): 204 | CD40L expression (MFI) ([1]; CD8+ cells, Post Thaw, Bazedoxifene 1000 nM): 230 | CD40L expression (MFI) ([1]; CD8+ cells, Post Thaw, Bazedoxifene 10000 nM): 375 | CD40L expression (MFI) ([1]; CD8+ cells, Restim, Bazedoxifene 0.01 nM): 340 | CD40L expression (MFI) ([1]; CD8+ cells, Restim, Bazedoxifene 0.1 nM): 340 | CD40L expression (MFI) ([1]; CD8+ cells, Restim, Bazedoxifene 1 nM): 364 | CD40L expression (MFI) ([1]; CD8+ cells, Restim, Bazedoxifene 10 nM): 472 | CD40L expression (MFI) ([1]; CD8+ cells, Restim, Bazedoxifene 100 nM): 561 | CD40L expression (MFI) ([1]; CD8+ cells, Restim, Bazedoxifene 1000 nM): 741 | CD40L expression (MFI) ([1]; CD8+ cells, Restim, Bazedoxifene 10000 nM): 447 | CD40L expression, ranking of constructs ([1]; CD8 positive cells, freeze/thaw followed by restimulation with CD3/CD28 beads): highest ER regulated CD40L expression | CD40L positive (T cells (CD4+ and CD8+); All Cells, 1 uM Baz): 58.1% | MFI (T cells (CD4+ and CD8+); All Cells, 1 uM Baz): 490 | CD40L positive (T cells (CD4+ and CD8+); All Cells, DMSO): 14% | MFI (T cells (CD4+ and CD8+); All Cells, DMSO): 174 | CD40L positive (T cells (CD4+ and CD8+); CD4+, 1 uM Baz): 62.8% | MFI (T cells (CD4+ and CD8+); CD4+, 1 uM Baz): 543 | CD40L positive (T cells (CD4+ and CD8+); CD4+, DMSO): 17% | MFI (T cells (CD4+ and CD8+); CD4+, DMSO): 197 | CD40L positive (T cells (CD4+ and CD8+); CD8+, 1 uM Baz): 42.3% | MFI (T cells (CD4+ and CD8+); CD8+, 1 uM Baz): 339 | CD40L positive (T cells (CD4+ and CD8+); CD8+, DMSO): 2.2% | MFI (T cells (CD4+ and CD8+); CD8+, DMSO): 95.6
